Article PMC11467371, “Structure‐based design of antibodies targeting the EBNA1 DNA‐binding domain to block Epstein–Barr virus latent infection and tumor growth”

Target: EBNA1 DBD (Epstein-Barr virus (strain B95.8), UniProt P03211 461-607)
Test: fluorescence polarization; EC50; 1 mM MgCl2; FP: 200 mM NaCl, 20 mM Tris-HCl pH 7.5, 1 mM MgCl2, 0.01% CHAPS; 20 nM FAM probe stock mixed 1:1 with 0.31-20 µM protein, 20 min; temperature not stated
Settings: protein: recombinant, tags: N-terminal 6xHis-SUMO, removed by ULP1, chain copies: 2, label: 5'-FAM, called 18-bp

Chain of EBNA1 DBD (P03211 461-607): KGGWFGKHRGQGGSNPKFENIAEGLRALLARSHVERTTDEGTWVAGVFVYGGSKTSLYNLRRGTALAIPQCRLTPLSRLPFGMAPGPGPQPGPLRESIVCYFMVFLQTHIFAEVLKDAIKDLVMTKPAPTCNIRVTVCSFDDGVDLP

B1: DNA02 (dsDNA)
DNA 1: GGGTAACCACTGTTACCC
DNA 2: GGGTAACAGTGGTTACCC
In the case of B1, the “apparent K (half saturation)” value (only the FAM strand is printed, complement implied) is reported as 1540 nM.

B2: DNA01 (dsDNA)
DNA 1: GGGTAGCATATGCTACCC
DNA 2: GGGTAGCATATGCTACCC
With B2 the “apparent K (half saturation)” value (blunt, one self-complementary strand printed, 2 copies) was 2130 nM.
